Changes are numbered by the printed parent chain. Several values for one entry are separate records, joined by “and”; a condition that tells them apart may be missing. Identical values can stand only once. Like-named read-outs stand apart in the source and are kept apart here. Values belong to the binder of their own block, whether it stands above or below them. Bridge positions count the residues as written; N and C are the ends. Ends that are not written are not given here. * marks the point of attachment. Biotin = O=C1N[C@H]2[C@H](CS[C@H]2CCCCC(=O)*)N1
Experiments:
[1] = target: T1, cyclic (biotinylated) ABCB5 peptide (human, disulfide 1-18); experiment: cyclic biotinylated peptide ELISA (200 nM peptide on streptavidin plates), BSA control subtracted (FIG. 4B)
T1 construct: immobilised at 200 nM on streptavidin-precoated plates; also called cyclic ABCB5 peptide
T1 peptide: Biotin-CRFGAYLIQAGRMTPEGC

[2] = target: T2, 'scrambled' (neg. ctrl.) peptide (also: conjugated to BSA); experiment: linear peptide ELISA, BSA-conjugated peptides (20 µM), OD 450 nm (mAb-Iso)
T2 construct: also called scrambled|BSA peptide
T2 peptide: GFEALGTAIRYPMGQR
Source text: (§1) Specificity for ABCB5 of Ab100. ELISAs run against ABCB5 peptide used to make the antibody was examined. The linear peptide ELISA binding study was a comparative assessment of quantitative binding to ABCB5 linear epitope peptide (3rd extracellular loop) and corresponding peptide segments of homologous (ABCB 1, 4, 11) and orthologous (murine ABCB5) proteins—to assess specificity and/or cross-reactivity (see FIG. 2). […] A primate sequence was not tested as the epitope sequence is identical to the human epitope. A scrambled peptide was used as a negative control. All of the tested peptides are all linear peptides, synthetically created to resemble extracellular loop. The X-axis is the Ab concentration. The Y-axis is the optical density of ELISA (signal representing binding). A non-specific signal with isotype antibody has been subtracted, which is why a non-specific isotype antibody is not shown.

[3] = target: T3, ABCB4 peptide segment corresponding to the ABCB5 linear epitope peptide (human, UniProt P21439 957-972, limits assumed); experiment: as above
T3 construct: domain: corresponding peptide segment (3rd extracellular loop); also called homologous control peptide
T3 peptide (looked up): RFGAYLIVNGHMRFRD
Source text: as §1

[4] = target: T4, ABCB5 linear epitope peptide (3rd extracellular loop) (human); experiment: as above
T4 construct: Synthetic linear peptide, used at 20 uM in the ELISA; 104; also called ABCB5 peptide; linear peptide
T4 peptide: RFGAYLIQAGRMTPEG
Source text: as §1

[5] = target: T1, cyclic (biotinylated) ABCB5 peptide; experiment: cyclic biotinylated peptide ELISA (200 nM peptide on streptavidin plates), no Ab control subtracted (FIG. 4A)
[6] = target: T1, cyclic (biotinylated) ABCB5 peptide; experiment: cyclic biotinylated peptide ELISA (200 nM peptides), curve fit, OD 450 nm
[7] = target: T1, cyclic (biotinylated) ABCB5 peptide; experiment: cyclic biotinylated peptide ELISA (200 nM peptides), broad range of mAb concentrations, curve fit, OD 450 nm
[8] = target: T5, cyclic 'scrambled' (neg. ctrl.) peptide (disulfide 1-18); experiment: cyclic biotinylated peptide ELISA (200 nM peptides), OD 450 nm (mAb-average Iso)
T5 construct: also called cycl. 'scrambled'
T5 peptide: Biotin-CGFEALGTAIRYPMGQRC

[9] = target: T1, cyclic (biotinylated) ABCB5 peptide; experiment: cyclic biotinylated peptide ELISA (200 nM peptides), broad range of mAb concentrations, OD 450 nm (mAb-average Iso)
[10] = target: T2, 'scrambled' (neg. ctrl.) peptide; experiment: linear peptide ELISA, BSA-conjugated peptides (20 µM), OD 450 nm (mAb-Iso (InVivoPlus+))
[11] = target: T4, ABCB5 linear epitope peptide (3rd …); experiment: as above
[12] = target: T6, ABCB1 peptide segment corresponding to the ABCB5 linear epitope peptide (human, UniProt P08183 958-973, limits assumed); experiment: as above
T6 construct: domain: corresponding peptide segment (3rd extracellular loop); also called homologous control peptide
T6 peptide (looked up): RFGAYLVAHKLMSFED

[13] = target: T7, ABCB11 peptide segment corresponding to the ABCB5 linear epitope peptide (human, UniProt O95342 1001-1016, limits assumed); experiment: as above
T7 construct: domain: corresponding peptide segment (3rd extracellular loop); also called homologous control peptide
T7 peptide (looked up): RYGGYLISNEGLHFSY

[14] = target: T1, cyclic (biotinylated) ABCB5 peptide; experiment: cyclic biotinylated peptide ELISA (200 nM peptides), broad range of mAb concentrations, curve fit
[15] = target: T1, cyclic (biotinylated) ABCB5 peptide; experiment: cyclic biotinylated peptide ELISA (200 nM peptides), curve fit
[16] = target: T2, 'scrambled' (neg. ctrl.) peptide; experiment: linear peptide ELISA, BSA-conjugated peptides (20 µM), OD 450 nm (mAb-Iso (InVivoPlus+))
[17] = target: T4, ABCB5 linear epitope peptide (3rd …); experiment: as above
[18] = target: T6, ABCB1 peptide segment corresponding to …; experiment: as above
[19] = target: T7, ABCB11 peptide segment corresponding to …; experiment: as above

B3: ABCB5-Ab43 (antibody, V domains shown)
VH: QVQLVQSGAEVKKPGASVKVSCKASGYTFTSYYMHWVRQSPGQGLEWMGIINPSGGSTSYAQKFQGRVTMTRDTSTSTVYMELSSLRSEDTAVYYCARDQAVTGTAYYYYYGMDVWGQGTTVTVSS
VL: EIVLTQSPGTLSLSPGERATLSCRASQSVNSKYLAWYQQKPGQAPRLLIYGTSSRATGIPDSFSGSGSGTDFTLTISRLEPEDFAVYYCQQFGSSPLTFGGGTKVEIK
Bmax [6]: 3.24
Bmax [7]: 3.77
binding result [8]: no binding (tested: 1 µg/ml)
EC50 (read off the curve) [9]: ~0.04 µg/mL
binding result [16]: no binding (tested: 50 µg/ml)
binding result [17]: binds
binding result [18]: no binding (tested: 50 µg/ml)
binding result [19]: no binding (tested: 50 µg/ml)
Kd [14]: 0.0345 µg/mL and 0.231 nM
Kd [15]: 0.0204 µg/mL and 0.137 nM

B4: ABCB5-Ab42 (antibody, V domains shown)
VH: B3 VH with A24T
VL: B3 VL with Q27L, K32N
notes: detection was with an anti-human secondary antibody
Bmax [6]: 3.17
Bmax [7]: 4.09
binding result [8]: no binding (tested: 1 µg/ml)
EC50 (read off the curve) [9]: ~0.04 µg/mL
binding result [16]: no binding (tested: 50 µg/ml)
binding result [17]: binds
binding result [18]: no binding (tested: 50 µg/ml)
binding result [19]: no binding (tested: 50 µg/ml)
Kd [14]: 0.0471 µg/mL and 0.316 nM
Kd [15]: 0.0222 µg/mL and 0.149 nM

B5: ABCB5-Ab44 (antibody, V domains shown)
VH: B3 VH with S40A, Q65K
VL: B3 VL with K32N
notes: also called A44; F01
Bmax [6]: 3.23
Bmax [7]: 3.99
binding result [8]: no binding (tested: 1 µg/ml)
EC50 (read off the curve) [9]: ~0.04 µg/mL
binding result [16]: no binding (tested: 50 µg/ml)
binding result [17]: binds
binding result [18]: no binding (tested: 50 µg/ml)
binding result [19]: no binding (tested: 50 µg/ml)
Kd [14]: 0.0335 µg/mL and 0.225 nM
Kd [15]: 0.00917 µg/mL and 0.0615 nM

The remaining lines, values ahead:

Kd [1]: 6.16 µg/mL and 41.3 nM
binding result [2]: no binding (tested: 50 µg/mL)
binding result [3]: no binding (tested: 50 µg/mL)
binding result [4]: binds
Kd [5]: 4.93 µg/mL and 33.1 nM
B1: ABCB5-Ab100 (antibody, human IgG1, kappa, V domains shown)
VH: EVQLVESGGGLVQPGGSLRLSCAASGFTFSSYSMNWVRQAPGKGLEWVSYISSSSSTIYYADSVKGRFTISRDNAKNSLYLQMNSLRDEDTAVYYCASNYQYGDYGGYWGRGTLVTVSS
VL: AIQLTQSPSSLTGSVGDRVTITCQASHDISNFLNWYQQKPGQAPKLLIYDAYNLQTGVPSRFSGTGSGTHFTLTINSLQPEDVGTYFCQQYDYFLSITFGQGTRLEIKR

Bmax [6]: 3.33
Bmax [7]: 3.83
binding result [8]: no binding (tested: 1 µg/ml)
EC50 (read off the curve) [9]: ~0.04 µg/mL
binding result [10]: no binding (tested: 50 µg/ml)
binding result [11]: binds
binding result [12]: no binding (tested: 50 µg/ml)
binding result [13]: no binding (tested: 50 µg/ml)
Kd [14]: 0.039 µg/mL and 0.261 nM
Kd [15]: 0.0283 µg/mL and 0.19 nM
B2: ABCB5-Ab101 (antibody, human IgG1, kappa, V domains shown)
VH: B3 VH with S40A
VL: EIVLTQSPGTLSLSPGERATLSCRASQSVNSNYLAWYQQKPGQAPRLLIYGTSSRATGIPDSFSGSGSGTDFTLTISRLEPEDFAVYYCQQFGSSPLTFGGGTKVEIKR
notes: Fully human monoclonal IgG1 kappa

Bmax [6]: 3.2
Bmax [7]: 3.71
binding result [8]: no binding (tested: 1 µg/ml)
EC50 (read off the curve) [9]: ~0.02 µg/mL
binding result [16]: no binding (tested: 50 µg/ml)
binding result [17]: binds
binding result [18]: no binding (tested: 50 µg/ml)
binding result [19]: no binding (tested: 50 µg/ml)
Kd [14]: 0.0205 µg/mL and 0.138 nM
Kd [15]: 0.00456 µg/mL and 0.0306 nM
B6: ABCB5-Ab45 (antibody, V domains shown)
VH: B3 VH with S31N, S40A, L45P, Q100L
VL: B3 VL with I2F, K32N
